The text below walks through data of patent publication US20100136009A1 (DIADEXUS, published 2010).

The target of assay [1] is T1, recombinant Ovr110-hFc encoded by Ovr110 Construct 2 (human).
T1 construct: Captured on plates by goat anti-human IgG Fc; also called Ovr110-hFc (with TM)
T1 chain: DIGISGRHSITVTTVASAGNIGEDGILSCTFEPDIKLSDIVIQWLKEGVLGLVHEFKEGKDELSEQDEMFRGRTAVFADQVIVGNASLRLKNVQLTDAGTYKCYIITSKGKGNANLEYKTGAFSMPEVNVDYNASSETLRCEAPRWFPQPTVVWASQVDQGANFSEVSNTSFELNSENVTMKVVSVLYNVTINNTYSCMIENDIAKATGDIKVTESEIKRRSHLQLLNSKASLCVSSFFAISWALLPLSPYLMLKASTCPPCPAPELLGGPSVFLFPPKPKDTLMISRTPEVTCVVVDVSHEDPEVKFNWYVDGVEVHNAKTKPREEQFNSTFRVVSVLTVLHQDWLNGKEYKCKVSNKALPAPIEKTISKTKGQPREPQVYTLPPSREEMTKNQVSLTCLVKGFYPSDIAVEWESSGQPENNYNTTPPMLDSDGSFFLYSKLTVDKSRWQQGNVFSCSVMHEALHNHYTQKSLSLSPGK
As to the kind of experiment: competition ELISA; row = unlabeled blocking MAb; competitor = biotinylated detecting MAb Q23.6. (ELISA stands for enzyme-linked immunosorbent assay.)

The target of assay [2] is T2, native Ovr110 protein on tumor cells (ZR-75-1, SKBR3, RL95.2, OVCAR3) (human, UniProt Q7Z7D3 25-282).
T2 sequence (looked up): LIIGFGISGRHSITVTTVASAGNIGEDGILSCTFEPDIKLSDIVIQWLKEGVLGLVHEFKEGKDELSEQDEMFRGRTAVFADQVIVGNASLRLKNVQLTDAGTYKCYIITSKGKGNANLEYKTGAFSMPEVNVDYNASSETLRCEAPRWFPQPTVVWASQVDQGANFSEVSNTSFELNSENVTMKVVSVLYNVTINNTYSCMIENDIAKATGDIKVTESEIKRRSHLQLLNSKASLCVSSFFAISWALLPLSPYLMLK
As to the kind of experiment: cell-based or functional assay.

In assay [3] the target is T3, Ovr110 (amino acids 1-282; Ovr110 Construct 1 without the 6-His tag) expressed on transiently transfected … (human, UniProt Q7Z7D3 25-282).
T3 construct: signal peptide not removed here
T3 sequence: T2 sequence (looked up)
As to the kind of experiment: flow cytometry; purified MAb; Ovr110-transfected 293F cells. On the technique in general: Flow cytometry measures light scatter and fluorescence of single cells or particles in a stream.

Assay [4] concerns the target T2, native Ovr110 protein on tumor cells …. As to the kind of experiment: flow cytometry; purified MAb; ZR-75-1 cells.
Assay [5] shares this target. As to the kind of experiment: flow cytometry; purified MAb; SKBR3 cells.
Assay [6] shares this target. As to the kind of experiment: cell-based or functional assay. This is another data set of the same source.
Assay [7] has as its target T1, recombinant Ovr110-hFc encoded by …. As to the kind of experiment: competition ELISA; row = unlabeled blocking MAb; competitor = biotinylated detecting MAb Q27.4.
For assay [8] the target is unchanged. As to the kind of experiment: competition ELISA; row = unlabeled blocking MAb; competitor = biotinylated detecting MAb Q3.1.
Assay [9] shares this target. As to the kind of experiment: competition ELISA; row = unlabeled blocking MAb; competitor = biotinylated detecting MAb Q19.6.
The target is the same in assay [10]. As to the kind of experiment: competition ELISA; row = unlabeled blocking MAb; competitor = biotinylated detecting MAb Q15.2.
Assay [11] has as its target T2, native Ovr110 protein on tumor cells …. As to the kind of experiment: flow cytometry; hybridoma supernatant; SKBR3 cells.
For assay [12], the target named is T1, recombinant Ovr110-hFc encoded by …. As to the kind of experiment: competition ELISA; row = unlabeled blocking MAb; competitor = biotinylated detecting MAb Q12.2.
For assay [13], the target named is T2, native Ovr110 protein on tumor cells …. As to the kind of experiment: flow cytometry titration of fluorescein-labeled MAb on ZR75-1 cells; one-site fit.
In assay [14] the target is T3, Ovr110 (amino acids 1-282; Ovr110 …). As to the kind of experiment: flow cytometry; hybridoma supernatant; Ovr110-transfected 293F cells.
Assay [15] addresses T1, recombinant Ovr110-hFc encoded by …. As to the kind of experiment: competition ELISA; row = unlabeled blocking MAb; competitor = biotinylated detecting MAb A87.1.
Assay [16] shares this target. As to the kind of experiment: competition ELISA; row = unlabeled blocking MAb; competitor = biotinylated detecting MAb C6.3.
The target is the same in assay [17]. As to the kind of experiment: competition ELISA; row = unlabeled blocking MAb; competitor = biotinylated detecting MAb Q11.12.3.

B1: Ovr110.Q27 (antibody, IgG1, V domains shown)
VH: QVQPQQSGAELARPGASVKLSCKASGYTFTTYWMQWVKQRPGQGLEWIGAIYPGDGDTRYTQKFKGKATLTADKSSSTAYMQLSSLASEDSAVYYCAINWGYAMDYWGQGTSVTVSS
VL: DIVLTQSHKIMSTSVGDRVSITCKASQDVRTAVAWYQQKPGQSPKLLIKSASYRYTGVPDRFSGSGSGTDFTFTISSVQAEDLAVYYCQQHYSNPTFGGGTKLEIKR
notes: Mouse hybridoma MAb; also called Q27.4; Q27.2
Take B1: the signal/noise ratio in assay [1] came out at 1; in [7] it was 1; in assay [8], 1.4; in [9], 6.5; in assay [10], 11.8; in assay [12] it was 3.1. The signal/noise ratio is 6.7 in assay [15], 1.2 in assay [16] and 5.5 in assay [17]. For the same molecule, in assay [2], the “Percentage growth compared to wells with media alone; ZR-75-1; MAb 0.4 ug/mL with 1.0 ug/mL mAb-ZAP” value was determined as 60.6%. For the same molecule, the “Percentage growth compared to wells with media alone; ZR-75-1; MAb 2.0 ug/mL with 1.0 ug/mL mAb-ZAP” value in assay [2] was determined as 69.5%. For the same molecule, the “% Cells Positive” value was 95.2% in [3]; 93.3% in [4]; 94.8% in assay [5]; 87.7% in assay [11]; 91.8% in assay [14]. For the same molecule, the figures for the MFI in assay [3], in assay [4] and in assay [5] were 5.48, 2.92 and 3.9, respectively. For the same molecule, the “Percentage growth compared to wells with media alone; SKBR3; MAb 0.4 ug/mL with 1.0 ug/mL mAb-ZAP” value in assay [6] came to 68.9%. Further, in assay [6], the “Percentage growth compared to wells with media alone; SKBR3; MAb 2.0 ug/mL with 1.0 ug/mL mAb-ZAP” value amounted to 73.6%. In addition, the “Mean Fluorescence Intensity (MFI)” value in [11] amounted to 1.48; in [14] it was 6.09. For the same molecule, binding in assay [13] was put at a Kd of 4.76 nM.

For orientation: Kd means the constant that tells how readily two partners part at equilibrium. Low readings indicate tighter binding, high ones weaker binding.
